Substitutions are numbered along the chain they refer to. Where “and” joins values, the source holds several entries; their conditions need not be identical. Identical values can stand only once. Like-named read-outs stand apart in the source and are kept apart here. Blank lines part the entries; values can stand above or below the binder they belong to.
Tests used:
[1] = target: T1, MiniBR3 peptide (human, C-terminal amide; disulfide between cysteines 24 and 35 and a second disulfide (BR3 numbering)); experiment: phage competition ELISA
T1 construct: synthetic
T1 sequence (peptide, as listed by the source): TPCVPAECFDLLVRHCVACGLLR

[2] = target: T2, human BR3 extracellular domain (human, UniProt Q96RJ3 1-61); experiment: phage competition ELISA
T2 construct: biotinylated where used as tracer; also called hBR3-ECD; BR3-ECD

[3] = target: T3, mouse BR3 extracellular domain (mouse, UniProt Q9D8D0 1-64); experiment: phage competition ELISA
T3 construct: also called mBR3-ECD; mBR-ECD
T3 sequence: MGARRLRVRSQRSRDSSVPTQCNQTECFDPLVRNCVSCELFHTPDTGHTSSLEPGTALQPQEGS

[4] = target: T3, mouse BR3 extracellular domain; experiment: SPR BIAcore-2000, mBR3-ECD on chip, Fab injected
From the text: (§1) Biacore measurement Surface plasmon resonance assays on a BIAcore™-2000 were used to determine the affinity of anti-BR3 Fabs. […] For kinetics analysis, 1:1 Languir model of simultaneous fitting of kₒₙ and koff was used.

[5] = target: T2, human BR3 extracellular domain; experiment: SPR BIAcore-2000, ECD on chip, Fab injected
From the text: as §1

[6] = target: T3, mouse BR3 extracellular domain; experiment: SPR BIAcore-2000, ECD on chip, Fab injected
From the text: as §1

[7] = target: T2, human BR3 extracellular domain; experiment: SPR BIAcore-2000, hBR3-ECD on chip, Fab injected
From the text: as §1

[8] = target: T2, human BR3 extracellular domain; experiment: single spot phage competition ELISA; OD with competitor / OD without competitor; criterion met by the picked clones
[9] = target: T3, mouse BR3 extracellular domain; experiment: as above
[10] = target: T4, mouse BR3-Fc (mouse); experiment: BAFF blocking ELISA: F(ab)'2 phage added to coated mBR3-Fc after mBAFF-Flag
T4 construct: (BR3 ECD fused to a murine Fc); also called mBR3-Fc; murine BR3-Fc
T4 chain: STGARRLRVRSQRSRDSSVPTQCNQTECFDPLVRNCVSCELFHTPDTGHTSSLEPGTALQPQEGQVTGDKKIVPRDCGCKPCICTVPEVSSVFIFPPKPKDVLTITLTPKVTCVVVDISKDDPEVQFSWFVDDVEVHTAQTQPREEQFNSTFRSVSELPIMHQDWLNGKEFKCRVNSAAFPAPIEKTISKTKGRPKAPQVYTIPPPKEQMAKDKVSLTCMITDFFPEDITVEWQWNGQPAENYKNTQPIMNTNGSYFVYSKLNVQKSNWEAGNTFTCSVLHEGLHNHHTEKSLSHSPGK
Method: The wells were blocked by adding 65 ul 1% BSA for 30 minutes followed by 40 ul 1% Tween20 for another 30 minutes. Next, the wells were washed five times with PBS—0.05% Tween20. […] The wells were washed five times with PBS—0.05% Tween20.
Binding was quantified by adding 75 ul/well of horse radish peroxidase (HRP)-conjugated anti-M13 antibody in PBS plus 0.5% BSA and 0.05% Tween20 at room temperature for 30 minutes (Sidhu et al., supra). The wells were washed with PBS—0.05% Tween20 at least five times.

[11] = target: T2, human BR3 extracellular domain; experiment: F(ab)'2 phage solution binding competition ELISA
Method: (§2) Third, a competition ELISA was performed. […] The wells were blocked by adding 65 ul 1% BSA for 30 minutes followed by 40 ul 1% Tween20 for another 30 minutes. The wells were washed with PBS—0.05% Tween20 5 times. […] The wells of the second plate were washed with PBS—0.5% Tween20 at least three times. 75 ul of HRP-conjugated anti-M13 antibody (1/5000 dilution with ELISA buffer) per well was added and incubated at room temperature for 30 minutes. The wells were washed again with PBS—0.05% Tween20 at least five times.

[12] = target: T3, mouse BR3 extracellular domain; experiment: F(ab)'2 phage solution binding competition ELISA
Method: as §2

[13] = target: T4, mouse BR3-Fc; experiment: F(ab)'2 phage solution binding competition ELISA
Method: as §2

[14] = target: T2, human BR3 extracellular domain; experiment: SPR, BR3 ECD on chip;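 also: Anti-BR3 antibodies passed over the chip at high flow in PBS with 0.05% polysorbate 20, on and off rates fitted together globally to a 1:1 binding model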
Method: (§3) After coupling, unoccupied sites on the chip were blocked by injecting 20 μl of 1M ethanolamine, pH 8.5. The running buffer was PBS containing 0.05% polysorbate 20. […] The binding surface was regenerated by injecting 20-30 μl of 10 mM glycine.HCl (pH 1.5). […] Data were analyzed using a 1:1 binding model using global fitting. The association and dissociation rate constants were fitted simultaneously (BIAevaluation software).
(§4) A high flow rate was used in order to minimize mass transport effects.

[15] = target: T2, human BR3 extracellular domain; experiment: BIAcore, Fab over immobilised target
Method: (§5) Each sample was analysed with 2-minute association and 20-minute dissociation. After each injection the chip was regenerated using 10 mM Glycine pH 1.5. Binding response was corrected by subtracting the RU from a blank flow cell. A 1:1 Languir model of simultaneous fitting of kₒₙ and koff was used for kinetics analysis.

[16] = target: T5, variant human BR3-Fc fusion; experiment: BIAcore, Fab over immobilised target
T5 construct: produced in CHO cells; also called vBR3-Fc; vhBR3-Fc
Method: as §5

[17] = target: T5, variant human BR3-Fc fusion; experiment: SPR, vBR3-Fc on chip;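 also: Anti-BR3 antibodies passed over chip-bound BR3-Fc in PBS with 0.05% polysorbate 20, on and off rates fitted together globally to a 1:1 binding model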
Method: as §3, §4

[18] = target: T2, human BR3 extracellular domain; experiment: SPR with Fab
Method: as §5

IC50 [1]: 5.4 nM
IC50 [2]: 9.4 nM
IC50 [3]: 9.5 nM
Kd [4]: 2.5 nM
koff [4]: 0.000195 s⁻¹
kon [4]: 77100 M⁻¹ s⁻¹
Kd [5]: 7.9 nM
koff [5]: 0.000293 s⁻¹
kon [5]: 37300 M⁻¹ s⁻¹
Kd [6]: 2.5 nM
koff [6]: 0.000195 s⁻¹
kon [6]: 77100 M⁻¹ s⁻¹
Kd [7]: 7.87 nM
koff [7]: 0.000293 s⁻¹
kon [7]: 37300 M⁻¹ s⁻¹
OD450nm reduction (%) [8]: < 50%
OD450nm reduction (%) [9]: < 50%
B1: V3-1 Fab (Fab, V domains shown)
VH: EVQLVESGGGLVQPGGSLRLSCAASGFTISSNSIHWVRQAPGKGLEWVAWITPSDGNTDYADSVKGRFTISADTSKNTAYLQMNSLRAEDTAVYYCARRVCYNRLGVCAGGMDYWGQGTLVTVSS
VL: DIQMTQSPSSLSASVGDRVTITCRASQDVSTAVAWYQQKPGKAPKLLIYSASFLYSGVPSRFSGSGSGTDFTLTISSLQPEDFATYYCQQSRITPPTFGQGTKVEIKR
notes: soluble Fab in SPR

Blocking to % (phage bound in the presence of BAFF) [10]: 65%
binding result [11]: binds
binding result [12]: no binding
IC50 [13]: 200 nM
B2: 96 (Fab, V domains shown)
VH: EVQLVESGGGLVQPGGSLRLSCAASGFTINSSAIHWVRQAPGKGLEWVGYITPASGYTDYADSVKGRFTISADTSKNTAYLQMNSLRAEDTAVYYCAKGFHWYRGFFDYWGQGTLVTVSS
VL: B1 VL with R92Y, I93T
notes: also called V96; clone 96

Blocking to % (phage bound in the presence of BAFF) [10]: 90%
IC50 [11]: 5000 nM
binding result [12]: no binding
IC50 [13]: 37 nM
B3: 89 (Fab, V domains shown)
VH: EVQLVESGGGLVQPGGSLRLSCAASGFTITGYGIHWVRQAPGKGLEWVAGITPANGYTDYADSVKGRFTISADTSKNTAYLQMNSLRAEDTAVYYCAKSFPFHYNFDYWGQGTLVTVSS
VL: B1 VL with R92Y, I93T
notes: also called V89; clone 89

IC50 [1]: 473 nM
Kd [5]: 1200 nM
koff [5]: 0.0028 s⁻¹
kon [5]: 2300 M⁻¹ s⁻¹
Kd [6]: 40 nM
OD450nm reduction (%) [8]: < 50%
OD450nm reduction (%) [9]: < 50%
B4: V3-13 Fab (Fab, V domains shown)
VH: B1 VH with S31R, N32R, N103S, R104S, L105V, G106R, V107G, G111A
VL: B1 VL with S50G, F53N, R92H, I93A, T94S
notes: soluble Fab in SPR

Blocking to % (phage bound in the presence of BAFF) [10]: 90%
binding result [11]: binds
binding result [12]: no binding
IC50 [13]: 133 nM
B5: 24 (Fab, V domains shown)
VH: EVQLVESGGGLVQPGGSLRLSCAASGFTISGSSIHWVRQAPGKGLEWVGTIYPYGGNTYYADSVKGRFTISADTSKNTAYLQMNSLRAEDTAVYYCARRAFVMSGMDYWGQGTLVTVSS
VL: B1 VL with R92Y, I93T
notes: also called V24; clone 24

IC50 [1]: 35 nM
Kd [5]: 72 nM
koff [5]: 0.00091 s⁻¹
kon [5]: 13000 M⁻¹ s⁻¹
Kd [6]: 36 nM
koff [6]: 0.0013 s⁻¹
kon [6]: 36000 M⁻¹ s⁻¹
OD450nm reduction (%) [8]: < 50%
OD450nm reduction (%) [9]: < 50%
B6: V3-12 Fab (Fab, V domains shown)
VH: B1 VH with N103D, L105A, G106R, G111A
VL: B1 VL with R92Y, I93S
notes: soluble Fab in SPR

Kd [14]: 0.46 nM and 0.652 nM
koff [14]: 0.000808 s⁻¹ and 0.000867 s⁻¹
kon [14]: 1.76e+06 M⁻¹ s⁻¹ and 1.33e+06 M⁻¹ s⁻¹
Kd [15]: 1.5 nM
Kd [16]: 5.4 nM
Kd [17]: 1.38 nM and 1.62 nM
koff [17]: 0.000902 s⁻¹ and 0.000808 s⁻¹
kon [17]: 660000 M⁻¹ s⁻¹ and 500000 M⁻¹ s⁻¹
fold improved affinity relative to the chimeric 11G9 Fab [18]: > 10 fold
B7: Hu11G9-46 Fab (Fab, V domains shown)
VH: EVQLVESGGGLVQPGGSLRLSCAASGDSITSGYWNWVRQAPGKGLEWVGYISYSGSTYYNPSLKSRFTISRDTSKNTFYLQMNSLRAEDTAVYYCAGLNDLYLYFDVWGQGTLVTVSS
VL: DIQMTQSPSSLSASVGDRVTITCRSSQSLVHSNGNTYLHWYQQKPGKAPKLLIYKVSNRFSGVPSRFSGSGSGTDFTLTISSLQPEDFATYYCSQSTHVPPFTFGQGTKVEIKR
notes: Fab

Kd [14]: 0.13 nM and 0.17 nM
koff [14]: 0.000137 s⁻¹ and 0.000163 s⁻¹
kon [14]: 1.08e+06 M⁻¹ s⁻¹ and 950000 M⁻¹ s⁻¹
Kd [15]: 0.15 nM
Kd [16]: 0.78 nM
Kd ([17]; 220 RU BR3-Fc immobilized): 0.95 nM
koff ([17]; 220 RU BR3-Fc immobilized): 0.00068 s⁻¹
kon ([17]; 220 RU BR3-Fc immobilized): 720000 M⁻¹ s⁻¹
Kd ([17]; 380 RU BR3-Fc immobilized): 0.61 nM
koff ([17]; 380 RU BR3-Fc immobilized): 0.000392 s⁻¹
kon ([17]; 380 RU BR3-Fc immobilized): 640000 M⁻¹ s⁻¹
fold higher affinity than the chimeric 9.1 Fab [18]: ~2 fold
B8: Hu9.1-70 Fab (Fab, V domains shown)
VH: EVQLVESGGGLVQPGGSLRLSCAASDSPRSGYYISWVRQAPGKGLEWVGFIRDKANGYTTEYNPSVKGRFTISADTSKNTAYLQMNSLRAEDTAVYYCAQVRRALDYWGQGTLVTVSS
VL: DIQMTQSPSSLSASVGDRVTITCKSSQSLLYSSNQNNYLAWYQQKPGKAPKLLIYWASIRDSGVPSRFSGSGSGTDFTLTISSLQPEDFATYYCQQYYTYPYTFGQGTKVEIKR
notes: Fab

Kd [14]: 0.14 nM
koff [14]: 0.000294 s⁻¹
kon [14]: 2.02e+06 M⁻¹ s⁻¹
Kd [17]: 6.4 nM
koff [17]: 0.00186 s⁻¹
kon [17]: 290000 M⁻¹ s⁻¹
fold higher affinity than the chimeric 9.1 Fab [18]: ~2 fold
B9: Hu9.1-RF Fab (Fab, V domains shown)
VH: B8 VH with D26G, S27F, P28T, R29V, S30T, G31A, I34M, A74R, A81F
VL: B8 VL with I59T, D61E
